{"source": "paper PMC6182170", "key": {"[1]": {"biological_target": "T1, ADR-1 WT (Caenorhabditis elegans) (UniProt Q9U3D6)", "T1 sequence": "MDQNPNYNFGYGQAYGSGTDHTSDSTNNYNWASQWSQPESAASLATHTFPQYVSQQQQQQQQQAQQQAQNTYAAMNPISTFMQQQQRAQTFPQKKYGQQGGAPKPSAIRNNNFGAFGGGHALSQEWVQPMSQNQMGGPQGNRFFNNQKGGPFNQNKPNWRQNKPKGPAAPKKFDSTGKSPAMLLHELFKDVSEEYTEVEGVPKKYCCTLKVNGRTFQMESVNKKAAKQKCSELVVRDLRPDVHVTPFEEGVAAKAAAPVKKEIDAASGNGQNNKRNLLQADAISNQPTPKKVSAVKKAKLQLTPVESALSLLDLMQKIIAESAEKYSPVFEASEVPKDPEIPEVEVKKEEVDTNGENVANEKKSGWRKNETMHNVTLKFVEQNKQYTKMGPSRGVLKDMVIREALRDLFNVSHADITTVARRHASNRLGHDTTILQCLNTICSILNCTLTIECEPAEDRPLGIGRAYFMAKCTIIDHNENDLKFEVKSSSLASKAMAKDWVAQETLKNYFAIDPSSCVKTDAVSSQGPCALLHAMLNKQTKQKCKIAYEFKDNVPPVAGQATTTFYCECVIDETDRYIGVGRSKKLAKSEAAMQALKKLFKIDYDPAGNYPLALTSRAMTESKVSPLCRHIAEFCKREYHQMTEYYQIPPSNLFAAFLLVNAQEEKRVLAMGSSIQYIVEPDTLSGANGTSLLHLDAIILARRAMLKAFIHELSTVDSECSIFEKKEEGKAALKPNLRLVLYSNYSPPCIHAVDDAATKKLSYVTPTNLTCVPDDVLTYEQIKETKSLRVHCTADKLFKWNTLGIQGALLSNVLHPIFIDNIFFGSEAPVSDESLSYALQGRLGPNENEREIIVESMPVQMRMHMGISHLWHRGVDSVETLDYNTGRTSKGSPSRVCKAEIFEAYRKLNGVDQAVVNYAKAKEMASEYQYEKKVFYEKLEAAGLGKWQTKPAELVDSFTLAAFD", "test": "EMSA", "conditions": "EMSA: 20 pM dsRNA, 50 mM KCl, 10 mM Tris-HCl pH 8.0, 10% glycerol, 1 mM MgCl2, 0.5 mM DTT, on ice 30 min; native 6% gel, 0.5x TBE, 4 C"}, "[2]": {"biological_target": "ADR-2 WT (Caenorhabditis elegans) (UniProt Q22618)", "sequence (Q22618 whole entry)": "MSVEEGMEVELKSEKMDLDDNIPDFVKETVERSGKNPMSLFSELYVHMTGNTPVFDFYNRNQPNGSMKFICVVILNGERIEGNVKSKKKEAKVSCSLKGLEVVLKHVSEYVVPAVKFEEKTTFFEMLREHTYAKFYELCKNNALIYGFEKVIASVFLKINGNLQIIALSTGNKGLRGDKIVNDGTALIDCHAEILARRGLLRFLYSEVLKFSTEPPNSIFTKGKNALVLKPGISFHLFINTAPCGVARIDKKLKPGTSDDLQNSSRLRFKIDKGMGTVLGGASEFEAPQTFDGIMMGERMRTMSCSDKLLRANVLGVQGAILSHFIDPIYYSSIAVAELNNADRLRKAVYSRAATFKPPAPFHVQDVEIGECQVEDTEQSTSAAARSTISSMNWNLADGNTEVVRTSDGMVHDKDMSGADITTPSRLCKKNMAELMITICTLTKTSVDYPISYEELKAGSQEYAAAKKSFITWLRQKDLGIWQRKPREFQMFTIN", "test": "EMSA", "conditions": "EMSA: 20 pM dsRNA, 50 mM KCl, 10 mM Tris-HCl pH 8.0, 10% glycerol, 1 mM MgCl2, 0.5 mM DTT, on ice 30 min; native 6% gel, 0.5x TBE, 4 C"}}}
{"sequence": "UUAUUAGGUCGGCAAAUAAUUAUUGACGUGUUUUGCCAAUUAACGAUUUUUUGUAAAUUUUAUAUGUGUCUCUUACAGUAAACCGAGAGUGUAUAAAAGCAUAUGAAUAUCAGUUGCUUUGGUCAUCUGAGUAGUAAUACGAUUCGAAAAAAUCGAAAAGUUUUUUUUCCAAUUUUUUGAGUUAGCCGUGAGAGUUG / CAACUCUUCACAGCUAACUCAAAAAAUCGCGAAAAGCAUUUUUCAAAAAAUUUUUGAUUUUUUAGAUUCUUAAUACUACGCAGGUAGCCAAAGUAGCUGAUAUUUUUAUGUUUUCAUACAUUCACAUUUUACUAUAAGACACACAUACAAAAUUUACAAAAAUUGUUAAUUGACAAAAUACGUCAAUAAUUAUUUGUCUACCUAAUAA [lam-2 3'UTR 200 bp dsRNA]", "values": [{"measurement": "Kd", "setting": "[1]", "value": 0.43, "unit": "nM"}, {"measurement": "Kd", "setting": "[2]", "value": 76.3, "unit": "nM"}]}
